In data set [1] the target is T1, NLuc-P54nrb full length (human, UniProt Q15233 1-471).
T1 sequence: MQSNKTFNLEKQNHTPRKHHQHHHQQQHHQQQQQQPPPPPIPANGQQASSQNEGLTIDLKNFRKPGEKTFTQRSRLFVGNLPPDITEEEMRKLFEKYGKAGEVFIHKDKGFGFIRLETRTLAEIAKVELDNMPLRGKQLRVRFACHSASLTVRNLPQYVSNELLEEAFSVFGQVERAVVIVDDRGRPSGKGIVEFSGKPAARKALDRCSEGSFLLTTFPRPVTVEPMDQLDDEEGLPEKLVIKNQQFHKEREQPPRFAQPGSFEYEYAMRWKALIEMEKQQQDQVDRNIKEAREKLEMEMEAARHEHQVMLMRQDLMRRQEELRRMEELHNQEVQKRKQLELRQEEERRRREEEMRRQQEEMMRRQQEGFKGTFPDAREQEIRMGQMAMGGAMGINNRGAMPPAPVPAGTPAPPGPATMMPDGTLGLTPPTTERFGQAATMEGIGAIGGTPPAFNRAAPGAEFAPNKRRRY
The experiment in a line: competition.

Data set [2] deals with T1, NLuc-P54nrb full length. Kind of data set: NanoBRET. Background: Bioluminescence resonance energy transfer reports proximity on the nanometre scale.
For the next data set, the target named is T2, RNase H1 HBD K59A,K60A (human, UniProt O60930 1-80, K59A;K60A).
T2 sequence: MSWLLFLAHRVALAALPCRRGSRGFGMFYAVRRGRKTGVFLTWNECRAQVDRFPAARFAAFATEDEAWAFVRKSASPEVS
The experiment in a line: NanoBRET.

For another data set, the target named is T3, RNase H1 CAT N151A (human, UniProt O60930 81-286, N151A).
T3 sequence: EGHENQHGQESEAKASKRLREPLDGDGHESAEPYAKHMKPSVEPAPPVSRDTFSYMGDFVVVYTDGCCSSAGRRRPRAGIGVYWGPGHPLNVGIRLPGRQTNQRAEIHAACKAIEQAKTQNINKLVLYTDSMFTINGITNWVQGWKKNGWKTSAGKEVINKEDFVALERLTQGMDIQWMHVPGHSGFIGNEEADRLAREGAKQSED
Kind of data set: NanoBRET.

Another data set addresses T4, RNase H1 CAT R179A (human, UniProt O60930 81-286, R179A).
T4 sequence: T3 sequence with A71N, R99A
The experiment in a line: NanoBRET.

Numbering of substitutions follows the chain as printed.

Broadly, the Kd is the concentration at which binding is half-saturated.

Take CUGCUAGCCUCUGGAUUUGA (ssRNA) [PO RNA]: the binding result in the data set with NLuc-P54nrb full length [1] is listed as “no binding”.

For CTGCTAGCCTCTGGATTTGA (ssDNA) [PO DNA], the binding result in the data set with NLuc-P54nrb full length [1] is “no binding”.

Turning to CTGCTAGCCTCTGGATTTGA (XNA, full PS; 5-10-5 gapmer, 2'-F wings, DNA gap) [ASO 766638 (2'-F gapmer)], the equilibrium dissociation constant (Kd) in the data set with NLuc-P54nrb full length [2] was approximately 3 nM.

B1: PO DNA/RNA heteroduplex (DNA:RNA)
DNA: CTGCTAGCCTCTGGATTTGA
RNA: UCAAAUCCAGAGGCUAGCAG
For B1, the binding signal with RNase H1 HBD K59A,K60A is approximately 10 fold weaker than WT HBD; in the data set with RNase H1 CAT N151A, more than 7 fold weaker than WT CAT; with RNase H1 CAT R179A, more than 2 fold weaker than WT CAT.

Values taken from publication PMC6846478.
